Measurements published in the supplement of paper PMC11865577.

Legend:
Test in all cases: pull-down binding Z-score (relative to library population); higher = stronger binding
[1] = test system: TO-3-N3 (biotin conjugate); details: RNA library: Library-2
Procedure, shortened: (§1)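 Biotin-conjugated small molecule (100 pmol) on streptavidin beads was incubated with 1 μg of heat-folded Cy5- or Cy3-end-labelled RNA library in phosphate/NaCl/KCl buffer at 25 °C for 60 min. Following three washes, RNA was eluted with hot SDS and hybridised at 55.5 °C for 20 h to a DNA barcode microarray. The binding value is a Z-score computed from the library mean and standard deviation, after subtraction of beads without compound and averaging of barcoded replicate probes with the highest and lowest excluded.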

[2] = test system: G-clamp-N3 (biotin conjugate); details: RNA library: Library-1 (pre-miRNA loops + repeats)
Procedure, shortened: as §1

[3] = test system: TO-3-N3-2 (biotin conjugate); details: RNA library: Library-2
Procedure, shortened: as §1

TO-N3 (biotin conjugate) = details: RNA library: Library-2
Procedure, shortened: as §1

[4] = test system: TO-N3-2 (biotin conjugate); details: RNA library: Library-2
Procedure, shortened: as §1

| Sequence | pull-down binding Z-score [1] | pull-down binding Z-score [2] | pull-down binding Z-score [3] | pull-down binding Z-score (TO-N3 (biotin conjugate)) | pull-down binding Z-score [4] |
| --- | --- | --- | --- | --- | --- |
| GAGGCCAGAGGUGCCC [hsa-mir-4292] | -0.0325 | 0.687 | 0.122 | 0.295 | 1.3 |
| GGCACUGGGUAUCGUAGGUGCC [hsa-mir-3116-1] | 0.661 | 2.06 | 0.127 | 0.377 | 0.718 |
| UAGGGCUGGAUGGUAGGGCCCA [hsa-mir-6890] | 0.343 | 2.15 | 0.343 | 0.642 | 1.13 |
| UUUUGCAGUUGAAAGUAAUGGCAAAG [hsa-mir-548ao] | -0.235 | 2.64 | 0.00731 | -0.0635 | 0.259 |
| AGUGCUAGGACACU [hsa-mir-374c] | -0.441 | -0.247 | -0.413 | -0.616 | -0.579 |
| CUUUGUGAUUUUAUGAGAACAAAG [hsa-mir-3173] | -0.938 | 0.801 | -0.486 | -1.22 | -1.27 |
| UGUUUAACUCCUCUCCACGUGAACA [hsa-mir-499a] | 0.828 | -0.0505 | -0.0532 | 0.731 | 0.116 |
| AAGUUCCCUCUGGCUGGAAC [hsa-mir-1249] | 0.574 | -0.433 | -0.021 | 0.559 | 0.112 |
| UCCCCUAGCGCGCCUUCUGGAGA [hsa-mir-3188] | -0.271 | 1.12 | -0.0116 | -0.0603 | 0.507 |
| GGGAGGUAUGAUAUCGUGGUUCCU [hsa-mir-3689e] | 0.555 | -0.485 | 0.567 | 0.8 | 1.03 |
| AAAGAGGUGUUUCUACUCCAU [hsa-mir-3690-1_3690-2] | -0.497 | -1.18 | -0.0114 | -0.517 | -0.235 |
| AUGAGAAAUUGGUUUCAA [hsa-mir-8063] | -0.191 | 1.5 | -0.245 | -0.161 | -0.557 |
| ACAGUUUGAGGGUCUAUGAUACCACCCGGUACAGGAGAUAACUGU [hsa-let-7g] | -0.508 | 0.817 | -0.136 | -0.0397 | 0.988 |
| GCUGCCCCUUUGCUCUCUGGGGUAGC [hsa-mir-3614] | 0.491 | 0.721 | 0.0223 | 0.258 | -0.388 |
| CAGUGCACCUUCAUGAACCG [hsa-mir-938] | 0.249 | -1.11 | 0.209 | 0.758 | 1.14 |
| CACAGUUCUGG [hsa-mir-761] | 0.292 | 0.647 | -0.473 | 0.102 | 0.18 |
| GCUCAAGCCACAGCAGGGUGUUUAGCGCUCUUCAGUGGCUCCAG [hsa-mir-1203] | -0.00832 | -1.23 | -0.102 | 0.563 | 1.14 |
| CAUAUGUAUGUAUGUAUGUCUGUUACACAUAUG [hsa-mir-3688-1] | -0.769 | -0.787 | -0.0225 | -0.818 | -0.421 |
| CCAGGUUCCAUGUGAUGCUGAA [hsa-mir-6806] | -0.162 | 0.154 | 0.299 | 0.316 | 0.575 |

| Sequence | pull-down binding Z-score [1] | pull-down binding Z-score [2] | pull-down binding Z-score [3] | pull-down binding Z-score (TO-N3 (biotin conjugate)) | pull-down binding Z-score [4] |
| --- | --- | --- | --- | --- | --- |
| AUCAAGAAAAGAUUUGGUGUUCUUGAU [hsa-mir-4782] | -0.152 | 1.36 | -0.112 | -0.513 | -0.784 |
| UGUGUUCAGUGGAACCAAGGUAAACACA [hsa-mir-624] | 1.29 | 1.58 | 0.95 | 1.56 | 1.22 |
| UUUAAGACACCCUGUACCUUAAA [hsa-mir-3121] | -0.44 | -1.57 | -0.305 | -0.415 | -0.346 |
| GGGAUGAGCCCUGGCUCUGUUUCCUAG [hsa-mir-378h] | 0.0333 | -0.127 | -0.0124 | 0.385 | 0.596 |
| CUGAGGACAUGCAGUUUCAG [hsa-mir-7702] | -0.471 | 0.946 | -0.579 | -0.651 | -0.304 |
| UUUGCCGUUAAAAGUAAUGGCA [hsa-mir-548a-2] | -0.228 | -1.31 | -0.17 | -0.368 | -0.106 |
| UGCUGUUGCUGUGAAAGCUGA [hsa-mir-6823] | 0.045 | -0.619 | 0.304 | 0.559 | 0.705 |
| GGAUGAAAGUCAAAGAAUCC [hsa-mir-1262] | 1.25 | -0.564 | 0.0666 | 1.17 | 0.0488 |
| GUCUGUCACUGGGGAAGUC [hsa-mir-4682] | 0.735 | 1.71 | 0.276 | 1.19 | 0.993 |
| CUUGCUGUGACAUGACAAAAAUAAG [hsa-mir-302d] | 0.449 | -0.853 | 0.294 | 0.357 | -0.107 |
| UGGAGGAGUCUGGUGGCCUGUUCUCUU [hsa-mir-6754] | -0.348 | -0.0952 | -0.0949 | 0.123 | 0.707 |
| GGGCCGUGCACCCGUGGGCCCC [hsa-mir-1915] | -0.204 | 1.73 | 0.0124 | 0.335 | 1.28 |
| GAGUGAAUC [hsa-mir-3610] | -0.31 | -0.304 | -0.35 | -0.454 | -0.552 |
| AUCUCCUUUAGGAAAACCUUCUGUGGGGAGU [hsa-mir-1296] | -0.0517 | -0.272 | -0.226 | -0.275 | -0.641 |
| UUCUGCUGAAGACUGGUCUCUUCAUGUGUGAG [hsa-mir-6133] | -0.389 | -0.872 | -0.0941 | -0.371 | 0.00769 |
| GUGUACCUCAUGUGUGUACAC [hsa-mir-5692a-2_5692a-1] | -0.584 | -0.853 | -0.344 | -0.563 | 0.335 |
| CCCCCAAUUAAAGUAGAUUGGGGG [hsa-mir-3153] | -0.415 | 0.917 | -0.696 | -0.725 | -1.29 |
| CUUGGGCCCAUUCCUUUCCUUACCCUAC [hsa-mir-6798] | 0.268 | -1.1 | 0.218 | 0.541 | 0.758 |
| GACAAUAUGUAUAAUGUUCAUAAGUCAUUC [hsa-mir-384] | 0.197 | 0.231 | 0.227 | 0.444 | -0.0426 |
